Test results: patent US20070123465A1 (IPF PHARMACEUTICALS, published 2007)
Square brackets hold non-standard residues; d marks the D form. Ends that are not written are not given here. miniPEG = PEG spacer between peptide and cysteine; dTic = O=C(O)[C@H]1Cc2ccccc2CN1; NMeL = CN[C@@H](CC(C)C)C(=O)O

B1: VIR-574 (peptide)
peptide: LEAIPMSIPPEFLFGKPFVFKG
modifications: also: homodimer: C-termini linked to both amino groups of a C-terminal lysine core -K-G

What follows are binders tested against T1, fusion peptide of HIV gp41 (HIV-1 strain NL4-3) (HIV-1 strain NL4-3) (assay: cell-based or functional assay).

| Binder | IC50, inhibition of HIV infection, HIV strain NL4-3 [nM] |
| --- | --- |
| LEAIPCSIPPEFLFGKPFVF (not fully specified) [VIRIP (virus inhibiting peptide)] | 15000 |

Target: T1, fusion peptide of HIV gp41 (HIV-1 …)
Assay: cell-based or functional assay
Remark: another data set of the same source

| Binder | IC50 NL4-3 [nM], anti-HIV activity (infection of P4-CCR5 indicator cells, beta-galactosidase reporter) [nM] |
| --- | --- |
| [NMeL]EDIPCSIPPEFLFGKPFVF (also: homodimer via intermolecular disulfide between Cys6 of the two chains) [VIR-717] | 635 |
| [NMeL]EAIPCSIPPEFLFGKPFVF (also: homodimer via intermolecular disulfide between Cys6 of the two chains) [VIR-712] | 195 |
| LEAIPMSIPPEFLFGKPFVF-{miniPEG-Cys-NH2} (also: homodimer disulfide bonded through the C-terminal cysteine) [VIR-673] | 664 |
| [NMeL]EKIPCSIPPEFLFGKPFVF (also: homodimer via intermolecular disulfide between Cys6 of the two chains) [VIR-716] | 182 |
| B1 | 3080 |
| LEKIPCSIP[dP]EVAFNKPFVF (also: homodimer via intermolecular disulfide Cys6-Cys6) [VIR-705] | 484 |
| LEAIPCGIP[dP]EV[dTic]FNKPFVF (also: homodimer via intermolecular disulfide Cys6-Cys6) [VIR-706] | 74 |
| LEAIPMCIPPEFLFGKPFVF (also: homodimer via intermolecular disulfide between Cys7 of the two chains) [VIR-577] | 3270 |
